# Experimental data published in patent US20170306033A1 (Amgen, published 2017).
# B1: iPS:327683 (bispecific antibody, human IgG1, kappa, N297G)
# light 1: DIQLTQSPSFLSASVGDRVTITCRASQSIGRSLHWYQQKPGKAPKLLIKYASQSLSGVPSRFSGSGSGTEFTLTISSLQPEDFATYYCHQSSRLPFTFGEGTKVDIKRTVAAPSVFIFPPSDEQLKSGTASVVCLLNNFYPREAKVQWKVDNALQSGNSQESVTEQDSKDSTYSLESTLTLSKADYEKHKVYACEVTHQGLSSPVTKSFNRGEC
# heavy 1: not shown
# light 2: EIVLTQSPGTLSLSPGERATLSCRASQSVSSGYLTWYQQKPGQAPRLLIYGASSRATGIPDRFSGSGSGTDFTLTISRLEPEDFAVYYCQQYGNSLSRFGKGTKLEIKRTVAAPSVFIFPPSDEQLKSGTASVVCLLNNFYPREAKVQWKVDNALQSGNSQESVTEQDSKDSTYSLKSTLTLSKADYEKHKVYACEVTHQGLSSPVTKSFNRGEC
# heavy 2: QVQLVESGGGVVQPGRSLRLSCAASGFTFSSYGMHWVRQAPGKELEWVAVIWYDGSNKYYAESVKGRFIISRDKSKNTLYLQMNSLRAEDTAVYYCARAGGIAAAGLYYYYGMDVWGQGTTVTVSSASTKGPSVFPLAPSSKSTSGGTAALGCLVKDYFPEPVTVSWNSGALTSGVHTFPAVLQSSGLYSLESVVTVPSSSLGTQTYICNVNHKPSNTKVDKKVEPKSCDKTHTCPPCPAPELLGGPSVFLFPPKPKDTLMISRTPEVTCVVVDVSHEDPEVKFNWYVDGVEVHNAKTKPCEEQYGSTYRCVSVLTVLHQDWLNGKEYKCKVSNKALPAPIEKTISKAKGQPREPQVYTLPPSRKEMTKNQVSLTCLVKGFYPSDIAVEWESNGQPENNYKTTPPVLKSDGSFFLYSKLTVDKSRWQQGNVFSCSVMHEALHNHYTQKSLSLSPGK
# B2: iPS:327684 (bispecific antibody, human IgG1, kappa, N297G)
# light 1: EIVLTQSPATLSLSPGERATLSCRASQSVGRSLHWYQQKPGQAPRLLIKYASQSLSGIPARFSGSGSGTDFTLTISSLEPEDFAVYYCHQSSRLPFTFGEGTKVDIKRTVAAPSVFIFPPSDEQLKSGTASVVCLLNNFYPREAKVQWKVDNALQSGNSQESVTEQDSKDSTYSLESTLTLSKADYEKHKVYACEVTHQGLSSPVTKSFNRGEC
# heavy 1: not shown
# light 2: EIVLTQSPGTLSLSPGERATLSCRASQSVSSGYLTWYQQKPGQAPRLLIYGASSRATGIPDRFSGSGSGTDFTLTISRLEPEDFAVYYCQQYGNSLSRFGKGTKLEIKRTVAAPSVFIFPPSDEQLKSGTASVVCLLNNFYPREAKVQWKVDNALQSGNSQESVTEQDSKDSTYSLKSTLTLSKADYEKHKVYACEVTHQGLSSPVTKSFNRGEC
# heavy 2: QVQLVESGGGVVQPGRSLRLSCAASGFTFSSYGMHWVRQAPGKELEWVAVIWYDGSNKYYAESVKGRFIISRDKSKNTLYLQMNSLRAEDTAVYYCARAGGIAAAGLYYYYGMDVWGQGTTVTVSSASTKGPSVFPLAPSSKSTSGGTAALGCLVKDYFPEPVTVSWNSGALTSGVHTFPAVLQSSGLYSLESVVTVPSSSLGTQTYICNVNHKPSNTKVDKKVEPKSCDKTHTCPPCPAPELLGGPSVFLFPPKPKDTLMISRTPEVTCVVVDVSHEDPEVKFNWYVDGVEVHNAKTKPCEEQYGSTYRCVSVLTVLHQDWLNGKEYKCKVSNKALPAPIEKTISKAKGQPREPQVYTLPPSRKEMTKNQVSLTCLVKGFYPSDIAVEWESNGQPENNYKTTPPVLKSDGSFFLYSKLTVDKSRWQQGNVFSCSVMHEALHNHYTQKSLSLSPGK
# B3: iPS:327678 (bispecific antibody, human IgG1, kappa, N297G)
# light 1: not shown
# heavy 1: not shown
# light 2: EIVLTQSPGTLSLSPGERATLSCRASQSVSSGYLTWYQQKPGQAPRLLIYGASSRATGIPDRFSGSGSGTDFTLTISRLEPEDFAVYYCQQYGNSLSRFGQGTKLEIKRTVAAPSVFIFPPSDEQLKSGTASVVCLLNNFYPREAKVQWKVDNALQSGNSQESVTEQDSKDSTYSLKSTLTLSKADYEKHKVYACEVTHQGLSSPVTKSFNRGEC
# heavy 2: not shown
# B4: iPS:327686 (bispecific antibody, human IgG1, kappa, N297G)
# light 1: not shown
# heavy 1: not shown
# light 2: EIVLTQSPGTLSLSPGERATLSCRASQSVSSGYLTWYQQKPGQAPRLLIYGASSRATGIPDRFSGSGSGTDFTLTISRLEPEDFAVYYCQQYGNSLSRFGQGTKLEIKRTVAAPSVFIFPPSDEQLKSGTASVVCLLNNFYPREAKVQWKVDNALQSGNSQESVTEQDSKDSTYSLKSTLTLSKADYEKHKVYACEVTHQGLSSPVTKSFNRGEC
# heavy 2: not shown
# B5: iPS:327685 (bispecific antibody, human IgG1, kappa, N297G)
# light 1: not shown
# heavy 1: not shown
# light 2: EIVLTQSPGTLSLSPGERATLSCRASQSVSSGYLTWYQQKPGQAPRLLIYGASSRATGIPDRFSGSGSGTDFTLTISRLEPEDFAVYYCQQYGNSLSRFGQGTKLEIKRTVAAPSVFIFPPSDEQLKSGTASVVCLLNNFYPREAKVQWKVDNALQSGNSQESVTEQDSKDSTYSLKSTLTLSKADYEKHKVYACEVTHQGLSSPVTKSFNRGEC
# heavy 2: not shown
# B6: iPS:327689 (bispecific antibody, human IgG1, kappa, lambda, N297G)
# light 1: not shown
# heavy 1: not shown
# light 2: QSVLTQPPSVSAAPGQKVTISCSGSSSNIGNNYVSWYQQLPGTAPKLLIYDNNKRPSGIPDRFSGSKSGTSTTLGITGLQTGDEADYYCGTWDSRLSAVVFGGGTKLTVLGQPKANPTVTLFPPSSEELQANKATLVCLISDFYPGAVTVAWKADGSPVKAGVETTKPSKQSNNKYAAKSYLSLTPEQWKSHRSYSCQVTHEGSTVEKTVAPTECS
# heavy 2: QVQLVESGGGVVQPGRSLRLSCAASGFTFSSFGMHWVRQAPGKGLEWVAVISFDGSIKYSVDSVKGRFTISRDNSKNTLFLQMNSLRAEDTAVYYCARDRLNYYESSGYYHYKYYGMAVWGQGTTVTVSSASTKGPSVFPLAPSSKSTSGGTAALGCLVKDYFPEPVTVSWNSGALTSGVHTFPAVLQSSGLYSLESVVTVPSSSLGTQTYICNVNHKPSNTKVDKKVEPKSCDKTHTCPPCPAPELLGGPSVFLFPPKPKDTLMISRTPEVTCVVVDVSHEDPEVKFNWYVDGVEVHNAKTKPCEEQYGSTYRCVSVLTVLHQDWLNGKEYKCKVSNKALPAPIEKTISKAKGQPREPQVYTLPPSRKEMTKNQVSLTCLVKGFYPSDIAVEWESNGQPENNYKTTPPVLKSDGSFFLYSKLTVDKSRWQQGNVFSCSVMHEALHNHYTQKSLSLSPGK
# B7: iPS:327690 (bispecific antibody, human IgG1, kappa, lambda, N297G)
# light 1: not shown
# heavy 1: not shown
# light 2: QSVLTQPPSVSAAPGQKVTISCSGSSSNIGNNYVSWYQQLPGTAPKLLIYDNNKRPSGIPDRFSGSKSGTSTTLGITGLQTGDEADYYCGTWDSRLSAVVFGGGTKLTVLGQPKANPTVTLFPPSSEELQANKATLVCLISDFYPGAVTVAWKADGSPVKAGVETTKPSKQSNNKYAAKSYLSLTPEQWKSHRSYSCQVTHEGSTVEKTVAPTECS
# heavy 2: QVQLVESGGGVVQPGRSLRLSCAASGFTFSSFGMHWVRQAPGKGLEWVAVISFDGSIKYSVDSVKGRFTISRDNSKNTLFLQMNSLRAEDTAVYYCARDRLNYYESSGYYHYKYYGMAVWGQGTTVTVSSASTKGPSVFPLAPSSKSTSGGTAALGCLVKDYFPEPVTVSWNSGALTSGVHTFPAVLQSSGLYSLESVVTVPSSSLGTQTYICNVNHKPSNTKVDKKVEPKSCDKTHTCPPCPAPELLGGPSVFLFPPKPKDTLMISRTPEVTCVVVDVSHEDPEVKFNWYVDGVEVHNAKTKPCEEQYGSTYRCVSVLTVLHQDWLNGKEYKCKVSNKALPAPIEKTISKAKGQPREPQVYTLPPSRKEMTKNQVSLTCLVKGFYPSDIAVEWESNGQPENNYKTTPPVLKSDGSFFLYSKLTVDKSRWQQGNVFSCSVMHEALHNHYTQKSLSLSPGK
# B8: iPS:328001 (bispecific antibody, human IgG2, kappa, lambda)
# light 1: EIVLTQSPATLSLSPGERATLSCRASQSVGRSLHWYQQKPGQAPRLLIKYASQSLSGIPARFSGSGSGTDFTLTISSLEPEDFAVYYCHQSSRLPFTFGPGTKVDIKRTVAAPSVFIFPPSDEQLKSGTASVVCLLNNFYPREAKVQWKVDNALQSGNSQESVTEQDSKDSTYSLESTLTLSKADYEKHKVYACEVTHQGLSSPVTKSFNRGEC
# heavy 1: QVQLVESGGGVVQPGRSLRLSCAASGFTFSRFAMHWVRQAPGKGLEWVAVISYDGGNKYYAESVKGRFTISRDNSKNTLYLQMNSLRAEDTALFYCARGYDVLTGYPDYWGQGTLVTVSSASTKGPSVFPLAPCSRSTSESTAALGCLVKDYFPEPVTVSWNSGALTSGVHTFPAVLQSSGLYSLKSVVTVPSSNFGTQTYTCNVDHKPSNTKVDKTVERKCCVECPPCPAPPVAGPSVFLFPPKPKDTLMISRTPEVTCVVVDVSHEDPEVQFNWYVDGVEVHNAKTKPREEQFNSTFRVVSVLTVVHQDWLNGKEYKCKVSNKGLPAPIEKTISKTKGQPREPQVYTLPPSREEMTKNQVSLTCLVDGFYPSDIAVEWESNGQPENNYDTTPPMLDSDGSFFLYSDLTVDKSRWQQGNVFSCSVMHEALHNHYTQKSLSLSPGK
# light 2: QSVLTQPPSVSAAPGQKVTISCSGSSSNIGNNYVSWYQQLPGTAPKLLIYDNNKRPSGIPDRFSGSKSGTSTTLGITGLQTGDEADYYCGTWDSRLSAVVFGGGTKLTVLGQPKANPTVTLFPPSSEELQANKATLVCLISDFYPGAVTVAWKADGSPVKAGVETTKPSKQSNNKYAAKSYLSLTPEQWKSHRSYSCQVTHEGSTVEKTVAPTECS
# heavy 2: QVQLVESGGGVVQPGRSLRLSCAASGFTFSSFGMHWVRQAPGKGLEWVAVISFDGSIKYSVDSVKGRFTISRDNSKNTLFLQMNSLRAEDTAVYYCARDRLNYYDSSGYYHYKYYGMAVWGQGTTVTVSSASTKGPSVFPLAPCSRSTSESTAALGCLVKDYFPEPVTVSWNSGALTSGVHTFPAVLQSSGLYSLESVVTVPSSNFGTQTYTCNVDHKPSNTKVDKTVERKCCVECPPCPAPPVAGPSVFLFPPKPKDTLMISRTPEVTCVVVDVSHEDPEVQFNWYVDGVEVHNAKTKPREEQFNSTFRVVSVLTVVHQDWLNGKEYKCKVSNKGLPAPIEKTISKTKGQPREPQVYTLPPSRKKMTKNQVSLTCLVKGFYPSDIAVEWESNGQPENNYKTTPPMLKSDGSFFLYSKLTVDKSRWQQGNVFSCSVMHEALHNHYTQKSLSLSPGK
# Experiments:
# human PAC1 receptor = target: T1, human PAC1 receptor (human, UniProt P41586 21-468); assay: cell-based or functional assay
# T1 sequence: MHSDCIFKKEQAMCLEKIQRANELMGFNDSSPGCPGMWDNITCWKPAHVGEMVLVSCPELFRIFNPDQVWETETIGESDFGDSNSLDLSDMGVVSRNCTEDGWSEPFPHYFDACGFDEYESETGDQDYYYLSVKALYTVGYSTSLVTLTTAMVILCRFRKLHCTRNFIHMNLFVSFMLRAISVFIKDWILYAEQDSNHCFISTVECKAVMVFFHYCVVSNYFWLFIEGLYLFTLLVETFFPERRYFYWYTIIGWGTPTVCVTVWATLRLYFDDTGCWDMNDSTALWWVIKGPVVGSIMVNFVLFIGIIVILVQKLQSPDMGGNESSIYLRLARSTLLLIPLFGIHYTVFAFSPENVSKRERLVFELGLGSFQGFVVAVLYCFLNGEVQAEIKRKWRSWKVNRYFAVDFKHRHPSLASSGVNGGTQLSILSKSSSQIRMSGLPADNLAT
# human CGRP receptor = human CGRP receptor (human, UniProt Q16602 23-461; O60894 27-148); assay: cell-based or functional assay
# Chain of human CGRP receptor (Q16602 23-461 limits assumed, chain 1 of 2): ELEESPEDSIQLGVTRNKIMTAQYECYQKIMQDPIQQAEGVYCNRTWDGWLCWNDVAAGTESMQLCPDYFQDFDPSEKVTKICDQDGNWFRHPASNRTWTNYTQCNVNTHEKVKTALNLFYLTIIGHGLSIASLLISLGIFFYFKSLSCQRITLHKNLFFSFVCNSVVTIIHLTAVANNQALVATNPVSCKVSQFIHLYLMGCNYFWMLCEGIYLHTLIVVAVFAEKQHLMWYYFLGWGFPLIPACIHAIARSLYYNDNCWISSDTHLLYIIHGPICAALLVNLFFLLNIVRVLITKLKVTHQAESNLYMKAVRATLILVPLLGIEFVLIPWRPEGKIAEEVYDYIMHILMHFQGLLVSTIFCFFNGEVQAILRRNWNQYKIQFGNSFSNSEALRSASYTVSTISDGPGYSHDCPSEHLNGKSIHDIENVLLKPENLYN
# Chain of human CGRP receptor (O60894 27-148 limits assumed, chain 2 of 2): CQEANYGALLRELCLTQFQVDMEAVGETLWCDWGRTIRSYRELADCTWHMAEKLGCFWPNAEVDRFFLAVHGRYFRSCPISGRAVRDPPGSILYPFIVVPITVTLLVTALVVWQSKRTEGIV
Binder,% inhibition of human PAC1 (human PAC1 receptor),% inhibition of human CGRPR (human CGRP receptor)
B1,30%,70%
B2,74%,71%
B3,43%,84%
B4,69%,87%
B5,85%,86%
B6,86%,78%
B7,50%,80%
B8,95%,65%
